Article PMC1402309, “Selection, affinity maturation, and characterization of a human scFv antibody against CEA protein” (BMC Cancer, 2006)
Like-named read-outs stand apart in the source and are kept apart here.

Assays:
[1] = target: T1, carcinoembryonic antigen (CEA), human purified protein (Sigma) (Homo sapiens, UniProt P06731, biotin (biotinamidohexanoic acid N-hydroxysuccinimide ester) for selection and for the ELISA on streptavidin-coated plates; biotin-free for directly coated plates)
[2] = target: T1, carcinoembryonic antigen (CEA), human …; test: ELISA; biotinylated CEA (1 ug/mL) on streptavidin-coated plates; scFv in blocking buffer (MPBS) 1 h at RT; anti-FLAG M2 and anti-mouse HRP; settings: one partner purified
[3] = target: T2, CEA, endogenous in human colon carcinoma LoVo cells (Homo sapiens (LoVo cells), UniProt P06731); test: flow cytometry on cells; living/intact human cells; 5 ug/mL scFv in PBS 1% BSA, 1 h at RT; anti-FLAG and FITC goat anti-mouse IgG; grades by percent stained cells; settings: one partner purified
T2 construct: carcinoembryonic antigen (CEA, CEACAM5), endogenous in LoVo colorectal carcinoma cells; which member carries the signal on cells is not separated; also called CEA in LoVo cells; 200 kDa band of LoVo cellular extract; source: endogenous, LoVo cells (on cells) and LoVo cellular extract
T2 sequence (P06731 35-685): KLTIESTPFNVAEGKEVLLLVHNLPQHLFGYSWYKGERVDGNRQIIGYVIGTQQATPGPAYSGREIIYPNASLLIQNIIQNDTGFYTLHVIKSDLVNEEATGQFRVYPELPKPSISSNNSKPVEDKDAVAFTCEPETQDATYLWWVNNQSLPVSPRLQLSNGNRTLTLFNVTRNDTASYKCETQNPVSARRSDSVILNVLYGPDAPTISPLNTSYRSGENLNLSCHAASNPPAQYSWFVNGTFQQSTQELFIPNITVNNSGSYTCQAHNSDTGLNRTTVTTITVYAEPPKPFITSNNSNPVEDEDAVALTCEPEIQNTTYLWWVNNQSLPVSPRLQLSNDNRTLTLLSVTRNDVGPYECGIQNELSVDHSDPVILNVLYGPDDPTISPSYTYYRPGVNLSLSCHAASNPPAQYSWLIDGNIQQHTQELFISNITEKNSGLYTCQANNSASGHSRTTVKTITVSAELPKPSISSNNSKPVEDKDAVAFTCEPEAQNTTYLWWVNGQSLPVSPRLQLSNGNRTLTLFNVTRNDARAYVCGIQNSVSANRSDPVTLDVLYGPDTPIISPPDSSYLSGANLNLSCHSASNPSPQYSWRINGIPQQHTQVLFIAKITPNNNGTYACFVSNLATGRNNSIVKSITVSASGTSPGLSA

T1 sequence (P06731 35-685): as above

| binding result [1] | binding result [2] | binding result [3] | Binder |
| --- | --- | --- | --- |
| binds |  |  | E2 (antibody, V domains shown) VH: not shown VL: SSELTQDPAVSAAWGQTVRITCRGGSLGSSRASWYQQKPGQAPVLVIYGRNNRPSGIPDRFSGSSSGNTASLAITGAQAEDEADYYCNSSYAWLPYVVFGGGTKLTVL |
| binds |  |  | B3 (antibody, V domains shown) VH: not shown VL: SSELTQDPAVSVALRQTVRITCQRDSLRSYYASWYQQKPGQAPVLVIYGKNNRPSGIPDRFSGSSSGNTASLTITGAQAEDEADYYCNSSYPWLPYVVFGGGTKLTVL |
|  | binds | binds | human MA39 scFv (anti-CEA single-chain antibody fragment) (scFv, V domains shown, clone from the ETH-2 synthetic human scFv library (DP47 heavy chain; DPK22 or DPL16 light chain, randomised CDR3s); the ELISA methods use soluble scFv; The methods name the host once as 'HB121'; also called scFv MA39; M39; source: E. coli HB2151, periplasmic extract, purified (Ni-NTA agarose); also culture supernatant) VH: not shown VL: SSELTQDPAVSVALGQTVRITCQGDSLRSYYASWYQQKPGQAPVLVIYGKNNRPSGIPDRFSGSSSGNTASLTITGAQAEDEADYYCNSSYPWLPYVVFGGGTKLTVL |
| binds |  |  | E15 (antibody, V domains shown) VH: EVQLVESGGGLVQPGGSLRLSCTASGFTFSRYAMSTVRQAPGKGLEWVSAISGSGGSTYYADSVKGRFTISRDNSKNTLYLQMNSLRAEDTAVYYCAKSNEFLFDYWGQGTLVTVSR VL: SSELTQDPAVSVALGQTVRITCQGDSLRSSYASWYQQKPGQAPVLVIYGKNNRPSGIPDRFSVSSSGNTASLTITGAQAEDEADYYCNSSYAWLPYVVFGGGTKLTVL |
| binds |  |  | E5 (antibody, V domains shown) VH: EVQLAESGGGLVQPGGSLRLSCAASGLTFSSYGMSTVRQAPGKGLEWVSAISGSGGSTYYADSVKGRFTISRDNSKNTLYLQMNSLRAEDTAVYYCAKSNEFLFDYWGQGTLVTVSR VL: SSELTQDPAVSVASGQTVRITCQGDSLRSSYASWYQRKPGQAPVLVIYGKNNRPSGIPDRFSGSSSGSTASLTITGAQAEDEADYYCNSSYAWLPYVVFGGGTKLTVL |
| binds |  |  | B17 (antibody, V domains shown) VH: not shown VL: SSELTQDPAVSVALGQTVRITCQGDSLRSYYASWYQQKPGQAPVLVIYGKNNRPSGIPDRFSGSSSGNTASLTITGAQAEDEADYYCNSSYPWLPYVVFGGGTKLTVL |
| binds |  |  | E4 (antibody, V domains shown) VH: EVQLAESGGGLVQPGGSLRLSCAASGFTFSSYGMSTVRQAPGKGLEWVSAISGSGGSTYYADSVKGRFTISRDNSKNTLYLQMNSLRAEDTAVYYCAKSNEFLFDYWGQGTLVTVSR VL: LSELTQDPAASVALGQTVRITCQGDSLRSSYASWYQQKPGQAPVLVIYGKNNRPPGIPDRFSVSSSGNTASLTITGAQAEDEADYYCNSSYAWLPYVVFGGGTKLTVL |
| binds |  |  | E9 (antibody, V domains shown) VH: not shown VL: SSELTQDPAVSVALGQTVRITCQGDSLRSSYASWYQQKPGQAPVLVIYGKNNRPSGIPGRFSVSSSGNTASLTITGAQAEDEADYYCNSSYAWLPYVVFGGGTKLTVL |
| binds |  |  | E14 (antibody, V domains shown) VH: EVQLAESGGGLVQPGGSLRLSCAASGFTFSSYAMSTVRQAPGKGLEWVSAISGSGGSTYYADSVMGRFTISRDNSKNTLYLQMNSLRAEDTAVYYCAKSNEFLFDYWGQGTLVTVSR VL: SSELTQDPAVSVALGQTVRITCQGDSLRGSYASWHQQKPGQAPVLVIYGKNNRPSGIPDRFSVSSSGNTASLTITGAQAEDEADYYCNSSYAWLPYVVFGGGTKLTVL |
| binds |  |  | E1 (antibody, V domains shown) VH: EVQLAESGGGLVQPGGSLRLPCAAPGFTFSSYAMSTVRQAPGKGLEWVSAISGSGGSTYYADSVKGRFTISRDNSKNTLYLQMNSLRAEDTAVYYCAKSNEFLFDYWGQGTLVTVSR VL: SSELTQDPAVSVALGQTVRITCRGDSLRSSYASWYQQKPGQAPVLVIYGKNNRPSGIPDRFSVSSSGNTASLTITGAQAEDEADYYCNSSYAWPPYVVFGGGTKLTVL |
| binds |  |  | E13 (antibody, V domains shown) VH: EVQLAEPGGGLVQPGGSLRLSCAASGLTFSSYAMSTIRQAPGKGLEWVSAISGSGGSTYYADSVKGRFTISRDNSENTLYLQMNSLRAEDTAVYYCAKSNEFLFDYWGQGTLVTVSR VL: SSELTQDPAVSVALGQAVRITCQGDSLRSTYASWYQQKPGQAPVLVIYGKNNRPSGIPDRFSGSSSGNTASLTIAGAQAEDEADYYCNSSYAWLPYVVFGGGTKLTVL |
| binds |  |  | E3 (antibody, V domains shown) VH: EVQLAESGGGLVRPGGSLRLSCAASGFTFSSYAMSTVRQAPGKGLEWVSAISGSGGSTYYADSVKGRFTISRDNSENTLYLQMNSLRAEDTAVYYCAKSNEFLFDYWGQGTLVTVSR VL: SSELTQDPAVSVALGQTVRITCQGDSLRSSYASWYQQKPGQAPVLVIYGKNNRPSGIPDRFSGSSSGNTASLTITGAQAEDEADYYCNSSYAWLPYVVFGGGTKLTVL |
| binds |  |  | E6 (antibody, V domains shown) VH: EVQLVETGGGLVQPGGSLRLSCAASGFAFSSYGMSTVRQAPGKGLEWVSAISGSGGSTYYADSVKGRFTISRDNSKNTLYLQMNSLRAEDTAVYYCAKSNEFLFDYWGQGTLVTVSR VL: SSELTQDPAVSVALGQTVRITCQGDSLRSSHASWYQQKPGRAPVLVIYGKNNRPSGIPARFSASSSGNTASLTITGAQAEDEADYYCNSSYAWLPYVVFGGGTKLTVL |
| binds |  |  | B5 (antibody, V domains shown) VH: not shown VL: SSELTQDPAVPVALRQTVRITCQGDSLRSYYASWYQQKPGQAPVLVIYGKNNRPSGIPDRFSGSSSGNTASLTITGAQAEDEADYYCNSSYPWLPYVVFGGGTKLTVL |
